Experimental data published in patent US20250108091A1, “PROTEIN FORMULATION, PREPARATION METHOD THEREFOR AND USE THEREOF” (BEIJING LIANGYUAN BIO-SCIENCE, LLC, priority 2022, published 2025).
pKd: −log10 of the molar value.

Experiments:
IL-2 protein = molecular target: T1, IL-2 protein (Homo sapiens, UniProt P60568, C145S); test: Isothermal titration calorimetry (ITC), interaction with IL-2; type: binding; conditions: SDS with IL-2, 7.69 mM sodium phosphate buffer, 25° C.; read-out: equilibrium dissociation constant Kd
T1 construct: made in house; host or cells: Escherichia coli
T1 sequence (P60568 21-153 C145S): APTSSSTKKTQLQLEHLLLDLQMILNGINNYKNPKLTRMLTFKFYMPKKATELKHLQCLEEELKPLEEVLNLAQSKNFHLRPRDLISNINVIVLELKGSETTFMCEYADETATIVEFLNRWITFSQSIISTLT
Protocol: (1) Preparation of samples: • A. PEG2000-DSPE solution: dissolved in 10 mM sodium acetate buffer (pH=5.5), with a concentration of 0.5 mM; • B. SDS solution: dissolved in 7.69 mM sodium phosphate buffer (pH=7.6), with a concentration of 1.73 mM; • C. IL-2 solution: dissolved in 10 mM sodium acetate buffer (pH=5.5), with a concentration of 0.005 mM; • D. IL-2 solution: dissolved in 7.69 mM sodium phosphate buffer (pH=7.0), with a concentration of 0.0164 mM.
10 The MicroCal ITC 200 isothermal titration calorimeter and its supporting operating software from Malvern Panalytical Company were used. Refer to the table below for specific parameter settings:
(3) To determine the interaction between PEG2000-PE and IL-2, 40 μl sample A was added to the syringe, and 250 μl sample C was added to the sample cell. To determine the interaction between SDS and IL-2, 40 μl sample B was added to the syringe, and 250 μl sample D was added to the cell. […] After the reaction was completed, the measured heat change was integrated and subjected to reaction curve fitting (FIG. 4) to calculate various parameters of the interaction between the two samples, wherein the K value measured in the ITC is the binding constant, with a unit of M-1, and its reciprocal is the dissociation constant Kd of the two substances, with a unit of M. The smaller the Kd value, the stronger the affinity between the two substances.

[1] = in serum in vivo; cited from earlier work
βγ dimer = molecular target: T2, βγ dimer (Homo sapiens, UniProt P14784+P31785); conditions: medium affinity; cited from earlier work
T2 sequence (P14784 27-551): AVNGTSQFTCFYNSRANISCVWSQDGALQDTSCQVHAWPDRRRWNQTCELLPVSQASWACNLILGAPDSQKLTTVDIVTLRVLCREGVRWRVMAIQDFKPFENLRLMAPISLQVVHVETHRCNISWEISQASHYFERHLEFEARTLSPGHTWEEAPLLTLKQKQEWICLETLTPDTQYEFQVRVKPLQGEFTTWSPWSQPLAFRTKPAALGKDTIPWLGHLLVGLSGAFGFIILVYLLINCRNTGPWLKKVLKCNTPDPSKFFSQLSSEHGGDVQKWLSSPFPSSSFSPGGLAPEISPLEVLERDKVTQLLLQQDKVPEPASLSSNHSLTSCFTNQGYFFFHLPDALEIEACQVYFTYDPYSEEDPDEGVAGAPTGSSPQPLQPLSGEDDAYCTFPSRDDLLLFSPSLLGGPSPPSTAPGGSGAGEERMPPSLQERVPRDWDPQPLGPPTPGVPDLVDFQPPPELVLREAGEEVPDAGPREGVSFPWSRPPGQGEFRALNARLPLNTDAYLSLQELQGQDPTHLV
T2 sequence (P31785 23-369): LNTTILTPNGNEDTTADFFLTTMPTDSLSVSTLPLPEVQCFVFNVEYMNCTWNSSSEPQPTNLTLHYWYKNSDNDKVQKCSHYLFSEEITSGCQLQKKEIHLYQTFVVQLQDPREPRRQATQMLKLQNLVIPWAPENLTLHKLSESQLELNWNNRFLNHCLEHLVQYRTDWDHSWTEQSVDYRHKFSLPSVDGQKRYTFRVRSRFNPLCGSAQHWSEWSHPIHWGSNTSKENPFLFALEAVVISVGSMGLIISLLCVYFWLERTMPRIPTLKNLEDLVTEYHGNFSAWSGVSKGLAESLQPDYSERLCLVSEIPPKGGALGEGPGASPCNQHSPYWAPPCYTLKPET

Molecule	pKd (IL-2 protein)	half-life [1] [min]	pKd (βγ dimer)
CCCCCCCCCCCCOS(=O)(=O)[O-].[Na+] [SDS, sodium dodecyl sulfate]	~4.43		
IL2: T cell growth factor, glycoprotein of four α-helices, molecular weight 15.5 Kd		10 to 85	~9.00
